Biological target: the molecule itself
Experiment: semi-native western blot (SDS PAGE gel, non-boiled and non-reduced samples); input samples of ERCC1-transfected A375 cells, blotted with anti-ERCC1 antibody; with or without 25 uM cisplatin for 5 h

B1: ERCC1 (1-297), full-length wild-type human ERCC1, Myc-tagged and Flag-tagged copies (natural protein, UniProt P07992 1-297, looked up)
chain: MDPGKDKEGVPQPSGPPARKKFVIPLDEDEVPPGVAKPLFRSTQSLPTVDTSAQAAPQTYAEYAISQPLEGAGATCPTGSEPLAGETPNQALKPGAKSNSIIVSPRQRGNPVLKFVRNVPWEFGDVIPDYVLGQSTCALFLSLRYHNLHPDYIHGRLQSLGKNFALRVLLVQVDVKDPQQALKELAKMCILADCTLILAWSPEEAGRYLETYKAYEQKPADLLMEKLEQDFVSRVTECLTTVKSVNKTDSQTLLTTFGSLEQLIAASREDLALCPGLGPQKARRLFDVLHEPFLKVP
notes: ERCC1, human, full length, residues 1-297 (297 amino acid protein); Self-association was tested with two differently tagged copies; Each copy carries only one of the two tags: the Myc-tagged copy was precipitated and the Flag-tagged copy was detected; The Myc copy is in pcDNA3.1(-)/myc-His A, which as far as I recall adds a C-terminal myc-His; Construct details are in the Supplementary …
stoichiometry N: 2

From PMC5589656, “Disruption of DNA repair in cancer cells by ubiquitination of a destabilising dimerization domain of nucleotide excision repair protein ERCC1” (Oncotarget, 2017)
